Experimental data as given in patent US20190314452A1 (YUHAN, published 2019).

Molecular target: human GLP-1 receptor (human, UniProt P43220 24-463)
Test: cell-based or functional assay

in vitro GLP-1 activity (intracellular cAMP, EC50 compared)	Binder
2 to 3 times lower than the fusion proteins containing other GLP-1 mutant sequences	DFD23 (Fc fusion) HGEGTFTSDVSSYLEGQAAKEFIAWLVKGRGEKEKEEQEERETKTPECPSHTQPLGVFLFPPKPKDTLMISRTPEVTCVVVDVSQEDPEVQFNWYVDGVEVHNAKTKPREEQFNSTYRVVSVLTVLHQDWLNGKEYKCKVSNKGLPSSIEKTISKAKGQPREPQVYTLPPSQEEMTKNQVSLTCLVKGFYPSDIAVEWESNGQPENNYKTTPPVLDSDGSFFLYSRLTVDKSRWQEGNVFSCSVMHEALHNHYTQKSLSLSLGKGGGGSGGGGSGGGGSHPIPDSSPLLQFGGQVRQRYLYTDDAQQTEAHLEIREDGTVGGAADQSPESLLQLKALKPGVIQILGVKTSRFLCQRPDGALYGSLHFDPEACSFREEIRPDGYNVYQSEAHGLPLHLPGNKSPHRDPAPRGPARFLPLPGLPPALPEPPGILAPQPPDVGSSDPLSMVTGLEAVRSPSYAS
~2 times higher than DFD69, DFD112 and DFD114	DFD59: GLP1(GEG)-HyFc40 (Fc fusion) HGEGTFTSDVSSYLEEQAAKEFIAWLVKGGGEKEKEEQEERETKTPECPSHTQPLGVFLFPPKPKDTLMISRTPEVTCVVVDVSQEDPEVQFNWYVDGVEVHNAKTKPREEQFNSTYRVVSVLTVLHQDWLNGKEYKCKVSNKGLPSSIEKTISKAKGQPREPQVYTLPPSQEEMTKNQVSLTCLVKGFYPSDIAVEWESNGQPENNYKTTPPVLDSDGSFFLYSRLTVDKSRWQEGNVFSCSVMHEALHNHYTQKSLSLSLGK
